Test system: T1, N[C@@H](CCC(=O)Nc1ccc([N+](=O)[O-])c(CO)c1)C(=O)O
T1 construct: As samples, there were used human serum; from tissue; host or cells: human serum
Assay: Km value, γ-GTP from human serum
Format: biochemical
Details: other: human serum γ-GTP
Text: In Table 3 are shown the results of measuring, by a conventional method, Km values of γ-L-glutamyl-3-hydroxymethyl-4-nitroanilide, which is a compound of this invention, for each of γ-GTPs derived from human serum, porcine kidney and bovine kidney.
In Table 3 are also shown, for reference, Km values of γ-L-glutamyl-3-carboxy-4-nitroanilide and γ-L-glutamyl-p-nitroanilide reported by Leslie M. Shaw (Clinical Chemistry, 23, 79 (1977)).

Chain of γ-GTP (human serum) (Homo sapiens) (chain, as listed by the source): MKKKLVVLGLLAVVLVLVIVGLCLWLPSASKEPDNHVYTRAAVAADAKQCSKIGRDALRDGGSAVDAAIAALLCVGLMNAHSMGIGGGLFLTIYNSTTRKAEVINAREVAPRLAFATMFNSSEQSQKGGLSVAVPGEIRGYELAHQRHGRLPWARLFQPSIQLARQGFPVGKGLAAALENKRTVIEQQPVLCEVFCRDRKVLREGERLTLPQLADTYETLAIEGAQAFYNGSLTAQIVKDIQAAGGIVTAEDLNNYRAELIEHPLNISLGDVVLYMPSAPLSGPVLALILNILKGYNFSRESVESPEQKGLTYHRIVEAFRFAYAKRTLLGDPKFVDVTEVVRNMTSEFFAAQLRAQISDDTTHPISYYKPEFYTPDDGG
Chain of γ-GTP (human serum) (Homo sapiens) (chain, as listed by the source): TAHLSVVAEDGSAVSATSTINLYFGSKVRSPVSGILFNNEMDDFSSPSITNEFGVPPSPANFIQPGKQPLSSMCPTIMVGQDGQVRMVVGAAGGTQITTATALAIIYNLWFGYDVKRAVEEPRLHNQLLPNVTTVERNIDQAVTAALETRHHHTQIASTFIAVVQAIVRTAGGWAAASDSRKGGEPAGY

γ-GTP (human serum) (Homo sapiens)
Km: 940 µM
